From PMC5693285 come the findings set out here.

In series [1] the test system is His-VtrAN-ZIPm (Vibrio parahaemolyticus RIMD2210633?; ZIP from Saccharomyces cerevisiae GCN4). The experiment in a line: EMSA. Conditions: EMSA: 10 mM Tris-HCl pH 7.5, 100 mM KCl, 1 mM DTT, 1 mM EDTA, 0.2% NP-40, 10% glycerol, 100 ng/ml BSA; 4 nM probe, protein 0-400 nM; 30 min room temperature; 6%. For orientation: A gel shift assay detects complexes by their altered migration in electrophoresis.

Series [2] deals with His-VtrAN (Vibrio parahaemolyticus RIMD2210633?). Briefly: EMSA. Conditions: EMSA: 10 mM Tris-HCl pH 7.5, 100 mM KCl, 1 mM DTT, 1 mM EDTA, 0.2% NP-40, 10% glycerol, 100 ng/ml BSA; 4 nM probe, protein 0-400 nM; 30 min room temperature; 6%.

Regarding “AGGGGCTATGCCCCTTTTATTTTTAATTCTCAAAGTTATCTTTTGAAGGTAATGGGGTATTTTTGAATAACTACATTGGGGTGTGATTGTCCTCGTTGTTTTTTAGTTTTTTTTAGGTTTTTTTTGCTGCTTTTCACGGTTTTATCATCACTTTATTCCGTGATTTAGCAAAATTCTTTTTAGGAGTTTGAAGTGGTCGTCTTCATTACCACGGCTTTAAGAACAGAGACGTTCTCTTTTAATCACAATAAATAACGAAGAAAAACTGTGAAAAGGGCTCAGCG (double strand) [vtrB upstream region 284 bp]”, the binding in series [1] and in series [2] was more than 400 nM throughout.
